How the values were obtained:
Assay in all cases: holdup assay
Set-up in all cases: key: below the threshold = too weak to quantify, mostly under pKd 3.1 to 4
NHERF1_1, O14745 = target: T1, NHERF1_1, O14745
T1 sequence (O14745 9-104, limits assumed, looked up): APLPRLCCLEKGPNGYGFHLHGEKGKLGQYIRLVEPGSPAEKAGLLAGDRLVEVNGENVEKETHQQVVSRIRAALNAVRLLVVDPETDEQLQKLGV

SDCBP_1, O00560 = target: SDCBP_1, O00560
SHANK3, Q9BYB0 = target: T2, SHANK3, Q9BYB0
T2 sequence (Q9BYB0 641-750, limits assumed, looked up): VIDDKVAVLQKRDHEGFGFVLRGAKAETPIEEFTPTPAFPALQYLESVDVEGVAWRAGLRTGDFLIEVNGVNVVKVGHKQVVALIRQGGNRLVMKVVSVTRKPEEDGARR

CARD14, Q9BXL6 = conditions: plain residues with an end cap or a label only (N-terminal biotin on a linker: (peg)3)
Sequence of CARD14, Q9BXL6 (Q9BXL6 558-663): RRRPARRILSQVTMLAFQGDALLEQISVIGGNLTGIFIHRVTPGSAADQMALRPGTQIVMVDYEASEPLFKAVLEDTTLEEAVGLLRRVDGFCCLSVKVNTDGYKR

MAGI3_5, Q5TCQ9 = target: MAGI3_5, Q5TCQ9
Sequence of MAGI3_5, Q5TCQ9 (Q5TCQ9 847-941): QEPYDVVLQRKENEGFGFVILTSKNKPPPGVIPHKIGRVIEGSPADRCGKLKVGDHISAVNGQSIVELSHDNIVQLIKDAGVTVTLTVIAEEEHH

GIPC3, Q8TF64 = conditions: plain residues with an end cap or a label only (N-terminal biotin on a linker: (peg)3)
Sequence of GIPC3, Q8TF64 (Q8TF64 107-202): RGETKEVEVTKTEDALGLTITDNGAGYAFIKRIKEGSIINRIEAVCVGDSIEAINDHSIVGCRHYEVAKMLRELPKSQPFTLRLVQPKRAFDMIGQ

MPDZ_13, O75970 = target: T3, MPDZ_13, O75970
T3 sequence (O75970 1982-2070, limits assumed, looked up): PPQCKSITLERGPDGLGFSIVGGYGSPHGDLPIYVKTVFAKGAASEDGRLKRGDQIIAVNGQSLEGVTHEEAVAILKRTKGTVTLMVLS

SHROOM3, Q8TF72 = target: T4, SHROOM3, Q8TF72
T4 sequence (Q8TF72 20-120, limits assumed, looked up): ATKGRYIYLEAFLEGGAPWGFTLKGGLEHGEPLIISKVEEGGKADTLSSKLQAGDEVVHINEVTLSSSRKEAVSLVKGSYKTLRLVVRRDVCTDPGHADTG

RIMS1, Q86UR5 = target: RIMS1, Q86UR5
Sequence of RIMS1, Q86UR5 (Q86UR5 584-692): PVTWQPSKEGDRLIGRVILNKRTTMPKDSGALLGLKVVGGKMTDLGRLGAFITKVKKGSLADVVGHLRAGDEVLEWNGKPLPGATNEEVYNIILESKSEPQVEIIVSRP

PDZRN3_2, Q9UPQ7 = target: T5, PDZRN3_2, Q9UPQ7; conditions: plain residues with an end cap or a label only (N-terminal biotin on a linker: (peg)3)
T5 sequence (Q9UPQ7 414-513, limits assumed, looked up): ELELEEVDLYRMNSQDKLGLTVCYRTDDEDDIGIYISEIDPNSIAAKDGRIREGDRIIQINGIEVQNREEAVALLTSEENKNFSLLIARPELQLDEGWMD

IL16_2, Q14005 = target: IL16_2, Q14005
Sequence of IL16_2, Q14005 (Q14005 350-450): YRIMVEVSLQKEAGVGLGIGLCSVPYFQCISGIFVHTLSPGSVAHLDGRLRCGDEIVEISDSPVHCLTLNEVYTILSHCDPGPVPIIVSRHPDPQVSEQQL

SHROOM2, Q13796 = target: T6, SHROOM2, Q13796
T6 sequence (Q13796 21-118, limits assumed, looked up): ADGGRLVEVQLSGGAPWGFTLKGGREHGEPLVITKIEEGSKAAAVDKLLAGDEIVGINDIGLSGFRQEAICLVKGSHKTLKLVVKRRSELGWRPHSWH

SIPA1L3, O60292 = target: T7, SIPA1L3, O60292
T7 sequence (O60292 961-1052, limits assumed, looked up): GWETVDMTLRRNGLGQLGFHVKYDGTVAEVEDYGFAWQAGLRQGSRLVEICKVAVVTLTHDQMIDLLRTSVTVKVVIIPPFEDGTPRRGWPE

MAGI1_4, Q96QZ7 = conditions: plain residues with an end cap or a label only (N-terminal biotin on a linker: (peg)3)
Sequence of MAGI1_4, Q96QZ7 (Q96QZ7 other isoform, or with tags, fused parts or gaps): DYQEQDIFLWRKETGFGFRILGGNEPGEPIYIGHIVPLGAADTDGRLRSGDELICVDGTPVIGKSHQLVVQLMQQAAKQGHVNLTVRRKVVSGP

PREX1_1, Q8TCU6 = target: PREX1_1, Q8TCU6
Sequence of PREX1_1, Q8TCU6 (Q8TCU6 608-718): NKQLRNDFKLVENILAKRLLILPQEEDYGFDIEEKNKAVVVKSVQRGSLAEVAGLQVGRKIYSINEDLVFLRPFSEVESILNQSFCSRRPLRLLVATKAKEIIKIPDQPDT

GRIP2_2, Q9C0E4 = conditions: plain residues with an end cap or a label only (N-terminal biotin on a linker: (peg)3)
Sequence of GRIP2_2, Q9C0E4 (Q9C0E4 137-245): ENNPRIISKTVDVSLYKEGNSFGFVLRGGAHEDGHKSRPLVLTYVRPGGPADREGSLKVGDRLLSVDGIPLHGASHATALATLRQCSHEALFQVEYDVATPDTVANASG

APBA3_2, O96018 = target: T8, APBA3_2, O96018
T8 sequence (O96018 480-570, limits assumed, looked up): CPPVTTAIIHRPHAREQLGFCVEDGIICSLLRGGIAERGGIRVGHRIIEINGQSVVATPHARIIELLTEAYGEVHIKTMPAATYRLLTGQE

PDZD8, Q8NEN9 = target: T9, PDZD8, Q8NEN9
T9 sequence (Q8NEN9 361-459, limits assumed, looked up): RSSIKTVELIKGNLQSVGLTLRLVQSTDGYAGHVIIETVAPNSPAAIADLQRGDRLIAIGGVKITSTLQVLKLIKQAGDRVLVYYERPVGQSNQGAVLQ

MAST3, O60307 = target: MAST3, O60307
Sequence of MAST3, O60307 (O60307 945-1048): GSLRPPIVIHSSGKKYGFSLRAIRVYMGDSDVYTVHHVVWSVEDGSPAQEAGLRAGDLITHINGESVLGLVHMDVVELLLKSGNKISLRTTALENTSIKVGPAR

MPDZ_7, O75970 = target: T10, MPDZ_7, O75970
T10 sequence (O75970 1146-1253, limits assumed, looked up): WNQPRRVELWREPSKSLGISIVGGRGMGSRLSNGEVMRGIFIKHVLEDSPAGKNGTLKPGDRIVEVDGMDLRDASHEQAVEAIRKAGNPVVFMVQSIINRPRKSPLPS

USH1C_1, Q9Y6N9 = target: T11, USH1C_1, Q9Y6N9
T11 sequence (Q9Y6N9 82-179, limits assumed, looked up): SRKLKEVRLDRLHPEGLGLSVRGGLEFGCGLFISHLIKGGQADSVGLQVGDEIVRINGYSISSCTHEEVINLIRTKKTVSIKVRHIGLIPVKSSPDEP

INTU, Q9ULD6 = target: T12, INTU, Q9ULD6; conditions: plain residues with an end cap or a label only (N-terminal biotin on a linker: (peg)3)
T12 sequence (Q9ULD6 180-273, limits assumed, looked up): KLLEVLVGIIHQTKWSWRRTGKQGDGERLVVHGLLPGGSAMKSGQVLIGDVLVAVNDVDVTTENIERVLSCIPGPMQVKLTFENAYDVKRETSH

MPDZ_3, O75970 = target: T13, MPDZ_3, O75970
T13 sequence (O75970 372-473, limits assumed, looked up): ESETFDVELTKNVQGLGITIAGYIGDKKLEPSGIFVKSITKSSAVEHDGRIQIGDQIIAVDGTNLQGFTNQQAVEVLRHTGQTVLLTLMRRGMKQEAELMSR

LMO7, Q8WWI1 = conditions: plain residues with an end cap or a label only (N-terminal biotin on a linker: (peg)3)
Sequence of LMO7, Q8WWI1 (Q8WWI1 1037-1138): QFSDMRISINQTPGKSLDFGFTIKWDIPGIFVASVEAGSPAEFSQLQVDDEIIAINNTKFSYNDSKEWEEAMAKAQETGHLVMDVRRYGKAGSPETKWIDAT

[1] = plain residues with an end cap or a label only (N-terminal biotin on a linker: (peg)3)
[2] = modified: phospho on T at position -2 from the C-terminal residue

Sequence of SDCBP_1, O00560 (O00560 111-198): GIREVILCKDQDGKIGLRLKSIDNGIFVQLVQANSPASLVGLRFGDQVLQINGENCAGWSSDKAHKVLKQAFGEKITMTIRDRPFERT

Binder	pKd (NHERF1_1, O14745; [1])	pKd (SDCBP_1, O00560; [1])	pKd (SHANK3, Q9BYB0; [1])	pKd (CARD14, Q9BXL6)	pKd (MAGI3_5, Q5TCQ9; [1])	pKd (MPDZ_13, O75970; [1])	pKd (SHROOM3, Q8TF72; [1])	pKd (RIMS1, Q86UR5; [1])	pKd (PDZRN3_2, Q9UPQ7)	pKd (IL16_2, Q14005; [1])	pKd (SHROOM2, Q13796; [1])	pKd (SIPA1L3, O60292; [1])	pKd (PREX1_1, Q8TCU6; [1])	pKd (APBA3_2, O96018; [1])	pKd (PDZD8, Q8NEN9; [1])	pKd (MAST3, O60307; [1])	pKd (MPDZ_7, O75970; [1])	pKd (USH1C_1, Q9Y6N9; [1])	pKd (INTU, Q9ULD6)	pKd (MPDZ_3, O75970; [1])	other results
RRRRSQSRESQC [HBV-HBc, P03193]	below the threshold	below the threshold	below the threshold	below the threshold	below the threshold	below the threshold	below the threshold	below the threshold	below the threshold	below the threshold	below the threshold	3.96	below the threshold	below the threshold	below the threshold	below the threshold	below the threshold	below the threshold	below the threshold	below the threshold	pKd (GIPC3, Q8TF64): below the threshold; pKd (MAGI1_4, Q96QZ7): below the threshold; pKd (GRIP2_2, Q9C0E4): below the threshold
QQSMSSADSTQA [SARS-Cov2-N, P0DTC9]	below the threshold	below the threshold	below the threshold	below the threshold	below the threshold	below the threshold	below the threshold	below the threshold	below the threshold	below the threshold	below the threshold	below the threshold	below the threshold	below the threshold	below the threshold	below the threshold	below the threshold	below the threshold	below the threshold	below the threshold	pKd (GIPC3, Q8TF64): below the threshold; pKd (LMO7, Q8WWI1): below the threshold; pKd (MAGI1_4, Q96QZ7): below the threshold; pKd (GRIP2_2, Q9C0E4): below the threshold
SSRTRRETQL [HPV16-E6_-2P, P03126]	–	–	–	–	–	–	–	–	–	–	–	–	–	–	–	–	–	–	–	–	pKd (NHERF1_1, O14745; [2]): below the threshold; pKd (SDCBP_1, O00560; [2]): below the threshold; pKd (SHANK3, Q9BYB0; [2]): below the threshold; pKd (MAGI3_5, Q5TCQ9; [2]): below the threshold; pKd (MPDZ_13, O75970; [2]): below the threshold; pKd (SHROOM3, Q8TF72; [2]): below the threshold; pKd (RIMS1, Q86UR5; [2]): below the threshold; pKd (IL16_2, Q14005; [2]): below the threshold; pKd (SHROOM2, Q13796; [2]): below the threshold; pKd (SIPA1L3, O60292; [2]): below the threshold; pKd (PREX1_1, Q8TCU6; [2]): below the threshold; pKd (APBA3_2, O96018; [2]): below the threshold; pKd (PDZD8, Q8NEN9; [2]): below the threshold; pKd (MAST3, O60307; [2]): below the threshold; pKd (MPDZ_7, O75970; [2]): below the threshold; pKd (USH1C_1, Q9Y6N9; [2]): below the threshold; pKd (MPDZ_3, O75970; [2]): below the threshold
RYEDTTLVEDTVL [WNV-NS5, Q9Q6P4]	5.14	below the threshold	4.59	below the threshold	below the threshold	below the threshold	below the threshold	below the threshold	below the threshold	below the threshold	4.14	below the threshold	below the threshold	below the threshold	below the threshold	below the threshold	below the threshold	below the threshold	below the threshold	below the threshold	pKd (LMO7, Q8WWI1): below the threshold
